Results on one substance are retold here after patent US20170183639A1.

This assay addresses purified human recombinant Src (human) (UniProt P12931). The assay is described as follows: in vitro competition; Src pre-incubated with peptide, GST-CD2 pull-down as competitor.

On to “pNaSH2 (TAT-tagged CD2-derived peptide phosphorylated at Y260)”, for which the IC50 (in general, the concentration that gives 50% inhibition) came to 500 nM.
